*1 amine or outer side, *2 acyl side, *3 side chain or, on linkers, in order; H or OH if unused. Side-chain parts run from the residue outwards. The star is where a group is joined. C20 diacid = O=C(O)CCCCCCCCCCCCCCCCCCC(=O)*; C18 diacid = O=C(O)CCCCCCCCCCCCCCCCC(=O)*; C16 diacid = O=C(O)CCCCCCCCCCCCCCC(=O)*; γGlu = O=C(O)[C@H](CCC(=O)[*:2])N[*:1]
T1: human amylin-3(a) receptor (human, UniProt P30988 25-474; O60896 24-148)
T1 sequence (looked up) 1: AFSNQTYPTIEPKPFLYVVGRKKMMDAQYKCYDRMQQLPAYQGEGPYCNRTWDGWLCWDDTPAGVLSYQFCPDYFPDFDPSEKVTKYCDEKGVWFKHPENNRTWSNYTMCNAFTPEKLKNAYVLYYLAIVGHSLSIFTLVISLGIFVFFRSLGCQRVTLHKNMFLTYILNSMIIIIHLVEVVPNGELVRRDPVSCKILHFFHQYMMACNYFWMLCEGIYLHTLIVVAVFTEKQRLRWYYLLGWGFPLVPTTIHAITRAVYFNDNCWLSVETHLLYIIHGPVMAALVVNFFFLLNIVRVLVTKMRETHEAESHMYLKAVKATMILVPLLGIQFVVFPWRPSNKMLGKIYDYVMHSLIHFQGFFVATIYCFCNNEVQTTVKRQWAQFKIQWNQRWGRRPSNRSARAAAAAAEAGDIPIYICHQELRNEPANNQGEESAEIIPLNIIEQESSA
T1 sequence (looked up) 2: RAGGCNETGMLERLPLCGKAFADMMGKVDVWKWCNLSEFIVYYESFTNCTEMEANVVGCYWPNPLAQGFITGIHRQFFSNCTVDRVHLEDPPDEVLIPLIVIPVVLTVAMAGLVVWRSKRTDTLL

T2: human calcitonin receptor (a) (human, UniProt P30988 25-474)
T2 sequence (looked up): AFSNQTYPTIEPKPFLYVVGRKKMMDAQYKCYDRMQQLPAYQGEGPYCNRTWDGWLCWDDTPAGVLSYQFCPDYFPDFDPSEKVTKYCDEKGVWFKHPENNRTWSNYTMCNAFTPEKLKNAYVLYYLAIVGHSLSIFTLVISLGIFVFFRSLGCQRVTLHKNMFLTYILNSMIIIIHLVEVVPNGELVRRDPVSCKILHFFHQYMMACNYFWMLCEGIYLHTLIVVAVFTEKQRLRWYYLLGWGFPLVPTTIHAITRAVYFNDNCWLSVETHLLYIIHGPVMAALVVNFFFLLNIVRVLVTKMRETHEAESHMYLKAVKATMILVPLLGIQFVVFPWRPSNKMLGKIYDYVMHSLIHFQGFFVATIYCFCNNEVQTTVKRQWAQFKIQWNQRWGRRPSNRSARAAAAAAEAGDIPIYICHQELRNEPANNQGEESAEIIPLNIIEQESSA


Assays:
[1] = target: T1, human amylin-3(a) receptor; test: cell-based or functional assay
[2] = target: T2, human calcitonin receptor (a); test: cell-based or functional assay

Row | Binder | hAmyR3 potency, EC50 (pM); CRE-luciferase reporter in BHK cells [1] | hCalcR potency, EC50 (pM); CRE-luciferase reporter in BHK cells [2]
1 | {C18 diacid-γGlu}-ASHLSTAQTQRLAEFLHHSSDNFGPILPPTDVGSNTP-NH2 (SMILES CC[C@H](C)[C@H](NC(=O)[C@@H]1CCCN1C(=O)CNC(=O)[C@H](Cc1ccccc1)NC(=O)[C@H](CC(N)=O)NC(=O)[C@H](CC(=O)O)NC(=O)[C@H](CO)NC(=O)[C@H](CO)NC(=O)[C@H](Cc1c[nH]cn1)NC(=O)[C@H](Cc1c[nH]cn1)NC(=O)[C@H](CC(C)C)NC(=O)[C@H](Cc1ccccc1)NC(=O)[C@H](CCC(=O)O)NC(=O)[C@H](C)NC(=O)[C@H](CC(C)C)NC(=O)[C@H](CCCNC(=N)N)NC(=O)[C@H](CCC(N)=O)NC(=O)[C@@H](NC(=O)[C@H](CCC(N)=O)NC(=O)[C@H](C)NC(=O)[C@@H](NC(=O)[C@H](CO)NC(=O)[C@H](CC(C)C)NC(=O)[C@H](Cc1c[nH]cn1)NC(=O)[C@H](CO)NC(=O)[C@H](C)NC(=O)CC[C@H](NC(=O)CCCCCCCCCCCCCCCCC(=O)O)C(=O)O)[C@@H](C)O)[C@@H](C)O)C(=O)N[C@@H](CC(C)C)C(=O)N1CCC[C@H]1C(=O)N1CCC[C@H]1C(=O)N[C@H](C(=O)N[C@@H](CC(=O)O)C(=O)N[C@H](C(=O)NCC(=O)N[C@@H](CO)C(=O)N[C@@H](CC(N)=O)C(=O)N[C@H](C(=O)N1CCC[C@H]1C(N)=O)[C@@H](C)O)C(C)C)[C@@H](C)O) | 1.64 pM | 1.89 pM
2 | Ac-ASQLSTAQTQRLAEFLHHSSDNFGK([γGlu-C18 diacid])ILPPTDVGSNTP-NH2 (SMILES CC[C@H](C)[C@H](NC(=O)[C@H](CCCCNC(=O)CC[C@H](NC(=O)CCCCCCCCCCCCCCCCC(=O)O)C(=O)O)NC(=O)CNC(=O)[C@H](Cc1ccccc1)NC(=O)[C@H](CC(N)=O)NC(=O)[C@H](CC(=O)O)NC(=O)[C@H](CO)NC(=O)[C@H](CO)NC(=O)[C@H](Cc1c[nH]cn1)NC(=O)[C@H](Cc1c[nH]cn1)NC(=O)[C@H](CC(C)C)NC(=O)[C@H](Cc1ccccc1)NC(=O)[C@H](CCC(=O)O)NC(=O)[C@H](C)NC(=O)[C@H](CC(C)C)NC(=O)[C@H](CCCNC(=N)N)NC(=O)[C@H](CCC(N)=O)NC(=O)[C@@H](NC(=O)[C@H](CCC(N)=O)NC(=O)[C@H](C)NC(=O)[C@@H](NC(=O)[C@H](CO)NC(=O)[C@H](CC(C)C)NC(=O)[C@H](CCC(N)=O)NC(=O)[C@H](CO)NC(=O)[C@H](C)NC(C)=O)[C@@H](C)O)[C@@H](C)O)C(=O)N[C@@H](CC(C)C)C(=O)N1CCC[C@H]1C(=O)N1CCC[C@H]1C(=O)N[C@H](C(=O)N[C@@H](CC(=O)O)C(=O)N[C@H](C(=O)NCC(=O)N[C@@H](CO)C(=O)N[C@@H](CC(N)=O)C(=O)N[C@H](C(=O)N1CCC[C@H]1C(N)=O)[C@@H](C)O)C(C)C)[C@@H](C)O) | 1.38 pM | 1.19 pM
3 | Ac-ASQLSTAQTQRLAEFLHHSSDPFGK([γGlu-C18 diacid])IPSSTDVGPDTP-NH2 (SMILES CC[C@H](C)[C@H](NC(=O)[C@H](CCCCNC(=O)CC[C@H](NC(=O)CCCCCCCCCCCCCCCCC(=O)O)C(=O)O)NC(=O)CNC(=O)[C@H](Cc1ccccc1)NC(=O)[C@@H]1CCCN1C(=O)[C@H](CC(=O)O)NC(=O)[C@H](CO)NC(=O)[C@H](CO)NC(=O)[C@H](Cc1c[nH]cn1)NC(=O)[C@H](Cc1c[nH]cn1)NC(=O)[C@H](CC(C)C)NC(=O)[C@H](Cc1ccccc1)NC(=O)[C@H](CCC(=O)O)NC(=O)[C@H](C)NC(=O)[C@H](CC(C)C)NC(=O)[C@H](CCCNC(=N)N)NC(=O)[C@H](CCC(N)=O)NC(=O)[C@@H](NC(=O)[C@H](CCC(N)=O)NC(=O)[C@H](C)NC(=O)[C@@H](NC(=O)[C@H](CO)NC(=O)[C@H](CC(C)C)NC(=O)[C@H](CCC(N)=O)NC(=O)[C@H](CO)NC(=O)[C@H](C)NC(C)=O)[C@@H](C)O)[C@@H](C)O)C(=O)N1CCC[C@H]1C(=O)N[C@@H](CO)C(=O)N[C@@H](CO)C(=O)N[C@H](C(=O)N[C@@H](CC(=O)O)C(=O)N[C@H](C(=O)NCC(=O)N1CCC[C@H]1C(=O)N[C@@H](CC(=O)O)C(=O)N[C@H](C(=O)N1CCC[C@H]1C(N)=O)[C@@H](C)O)C(C)C)[C@@H](C)O) | 1.5 pM | 1 pM
4 | {C20 diacid-γGlu}-ASHLSTAQTQRLAEFLHHSSDNFGPILPPTDVGSNTP-NH2 (SMILES CC[C@H](C)[C@H](NC(=O)[C@@H]1CCCN1C(=O)CNC(=O)[C@H](Cc1ccccc1)NC(=O)[C@H](CC(N)=O)NC(=O)[C@H](CC(=O)O)NC(=O)[C@H](CO)NC(=O)[C@H](CO)NC(=O)[C@H](Cc1c[nH]cn1)NC(=O)[C@H](Cc1c[nH]cn1)NC(=O)[C@H](CC(C)C)NC(=O)[C@H](Cc1ccccc1)NC(=O)[C@H](CCC(=O)O)NC(=O)[C@H](C)NC(=O)[C@H](CC(C)C)NC(=O)[C@H](CCCNC(=N)N)NC(=O)[C@H](CCC(N)=O)NC(=O)[C@@H](NC(=O)[C@H](CCC(N)=O)NC(=O)[C@H](C)NC(=O)[C@@H](NC(=O)[C@H](CO)NC(=O)[C@H](CC(C)C)NC(=O)[C@H](Cc1c[nH]cn1)NC(=O)[C@H](CO)NC(=O)[C@H](C)NC(=O)CC[C@H](NC(=O)CCCCCCCCCCCCCCCCCCC(=O)O)C(=O)O)[C@@H](C)O)[C@@H](C)O)C(=O)N[C@@H](CC(C)C)C(=O)N1CCC[C@H]1C(=O)N1CCC[C@H]1C(=O)N[C@H](C(=O)N[C@@H](CC(=O)O)C(=O)N[C@H](C(=O)NCC(=O)N[C@@H](CO)C(=O)N[C@@H](CC(N)=O)C(=O)N[C@H](C(=O)N1CCC[C@H]1C(N)=O)[C@@H](C)O)C(C)C)[C@@H](C)O) | 0.9 pM | 1.3 pM

Next, values leading:

Row | hAmyR3 potency, EC50 (pM); CRE-luciferase reporter in BHK cells [1] | hCalcR potency, EC50 (pM); CRE-luciferase reporter in BHK cells [2] | Binder
5 | 1.62 pM | 1.5 pM | {C16 diacid-γGlu}-ASHLSTAQTARLAEFLHHSSDNFGPILPPTDVGSNTP-NH2 (SMILES CC[C@H](C)[C@H](NC(=O)[C@@H]1CCCN1C(=O)CNC(=O)[C@H](Cc1ccccc1)NC(=O)[C@H](CC(N)=O)NC(=O)[C@H](CC(=O)O)NC(=O)[C@H](CO)NC(=O)[C@H](CO)NC(=O)[C@H](Cc1c[nH]cn1)NC(=O)[C@H](Cc1c[nH]cn1)NC(=O)[C@H](CC(C)C)NC(=O)[C@H](Cc1ccccc1)NC(=O)[C@H](CCC(=O)O)NC(=O)[C@H](C)NC(=O)[C@H](CC(C)C)NC(=O)[C@H](CCCNC(=N)N)NC(=O)[C@H](C)NC(=O)[C@@H](NC(=O)[C@H](CCC(N)=O)NC(=O)[C@H](C)NC(=O)[C@@H](NC(=O)[C@H](CO)NC(=O)[C@H](CC(C)C)NC(=O)[C@H](Cc1c[nH]cn1)NC(=O)[C@H](CO)NC(=O)[C@H](C)NC(=O)CC[C@H](NC(=O)CCCCCCCCCCCCCCC(=O)O)C(=O)O)[C@@H](C)O)[C@@H](C)O)C(=O)N[C@@H](CC(C)C)C(=O)N1CCC[C@H]1C(=O)N1CCC[C@H]1C(=O)N[C@H](C(=O)N[C@@H](CC(=O)O)C(=O)N[C@H](C(=O)NCC(=O)N[C@@H](CO)C(=O)N[C@@H](CC(N)=O)C(=O)N[C@H](C(=O)N1CCC[C@H]1C(N)=O)[C@@H](C)O)C(C)C)[C@@H](C)O)
6 | 1.11 pM | 1.15 pM | {C18 diacid-γGlu-γGlu}-ASHLSTAQTARLAEFLHHFGPILPPTDVGSETP-NH2 (SMILES CC[C@H](C)[C@H](NC(=O)[C@@H]1CCCN1C(=O)CNC(=O)[C@H](Cc1ccccc1)NC(=O)[C@H](Cc1c[nH]cn1)NC(=O)[C@H](Cc1c[nH]cn1)NC(=O)[C@H](CC(C)C)NC(=O)[C@H](Cc1ccccc1)NC(=O)[C@H](CCC(=O)O)NC(=O)[C@H](C)NC(=O)[C@H](CC(C)C)NC(=O)[C@H](CCCNC(=N)N)NC(=O)[C@H](C)NC(=O)[C@@H](NC(=O)[C@H](CCC(N)=O)NC(=O)[C@H](C)NC(=O)[C@@H](NC(=O)[C@H](CO)NC(=O)[C@H](CC(C)C)NC(=O)[C@H](Cc1c[nH]cn1)NC(=O)[C@H](CO)NC(=O)[C@H](C)NC(=O)CC[C@H](NC(=O)CC[C@H](NC(=O)CCCCCCCCCCCCCCCCC(=O)O)C(=O)O)C(=O)O)[C@@H](C)O)[C@@H](C)O)C(=O)N[C@@H](CC(C)C)C(=O)N1CCC[C@H]1C(=O)N1CCC[C@H]1C(=O)N[C@H](C(=O)N[C@@H](CC(=O)O)C(=O)N[C@H](C(=O)NCC(=O)N[C@@H](CO)C(=O)N[C@@H](CCC(=O)O)C(=O)N[C@H](C(=O)N1CCC[C@H]1C(N)=O)[C@@H](C)O)C(C)C)[C@@H](C)O)
